Measured values: the RNAGym collection of RNA variant scans (doi:10.1073/pnas.2313332121)
For part of these data: This sample holds only a part of the variants without activity.

B1: TPR 5TU (parent)
chain: GGAUCUUCUCGAUCUAACAAAAAAGACAAAUCUGCCACAAAGCUUGAGAGCAUCUUCGGAUGCAGAGGCGGCAGCCUUCGGUGGCGCGAUAGCGCCAACGUUCUCAACUAUGACACGCAAAACGCGUGCUCCGUUGAAUGGAGUUUAUCAUG
B2: TPR t1 (parent)
chain: GACCAAUCUGCCCUCAGAGCUCGAGAACAUCUUCGGAUGCAGAGGAGGCAGGCUUCGGUGGCGCGAUAGCGCCAACGUCCUCAACCUCCAAUGCAUCCCACCACAUGAUGAUGCCUGAAGAGCCUUGGUUUUUUG

Variants of: B1
Assay: polymerase ribozyme fitness, log enrichment relative to wild type (log ratio); higher = more active; in vitro selection for triplet polymerase activity
Outline: (§1)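 Fitness compares each genotype's enrichment to that of the wild type on a logarithmic scale, averaging replicates with inverse-variance weights. The logarithm is base 2. Enrichment came from Illumina sequencing of input and output libraries after one triplicate round of in vitro selection, which included frozen incubation at −7 °C, of PCR-built, transcribed mutant libraries of each subunit of a heterodimeric triplet polymerase ribozyme. Only genotypes with ≥10 input reads and ≥1 read per output were kept.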

Variant	polymerase ribozyme fitness (log ratio)
A3U A21C G62C C63U A73U C79U G84A C93G A106U U145G	≤ -4.2
A3G U4A A17C A52G G94C U102C C131U	-1.71
A3U G48C C51U C57U C95A A115C	≤ -4.2
A3C U6G C57U G74C C149U	≤ -4.2
A3G A20G G48C G50C G67C G68A G83A U139C	≤ -4.2
A3G A20U C36A C87G C129A U139C U146G	≤ -4.2
A3U U55A	-0.84
A3U G59C	-0.00695
A3G A24C U53A U61A C85G	≤ -4.2
A3U G92A A113G G133U A142U U146G	≤ -4.2
A3C U15A A19U C75U C87U	-1.71
A3G C8G A23C C54A G80C G81A A89U C93G	≤ -4.2
A3C C5A A52C G65U C99G G133C	≤ -4.2
A3C C14G C27U C85U U144G	-2.9
A3U C14G A28C A91U A97C A122C	≤ -4.2
A3U G133U U135G	≤ -4.2
A3G U9G C36A G67A G68C A73G U135G	≤ -4.2
A3U A16C A20C A47U U53G G86A A110G	≤ -4.2
A3C G58A G94A	-0.578
A3U A49G	-0.232
A3U A24U A66U C93G A107C	≤ -4.2
A3G A16C A26C U45A G59C G86C U130G U145G	≤ -4.2
A3C A23C G74A C85A C103U U130A	≤ -4.2
A3C C5U G62C	-1.89

Variant	polymerase ribozyme fitness (log ratio)
A3C A41G G50C U53G G67U G86C G128U C129U U146G C149U	≤ -4.2
A3C U6G A23U A39G U44A A89G C116G	≤ -4.2
A3G C14G A16C U82C C129G C131A	≤ -4.2
A3U A12G C43U C54U G71U C79A A120C	≤ -4.2
U4A A21G U55G U101G G152A	≤ -4.2
A3U C99U	-0.307
A3C G58U C76U G84A C85U G94A	-2.53
A3U A49G G84C	-3.89
A3G C18U G50C C87G A97G C99U U146G	≤ -4.2
A3U G58C G59C C96U C131A	-3.63
A3C U4G A16G U33G C43U G92U A106G	≤ -4.2
A3G U82G C95U U102G	-3.62
A3G C75A C93A A97U A98U U101G C118U	≤ -4.2
A3U G46C U77C G86U A98U A121U U127A	-4.08
A3C A121U	0.339
A3U G11C U44A G58C G62A G68A G94C	≤ -4.2
A3C G141U	0.471
A3U A49G G50A C96U G141A	-3.63
A3G U13A G42C C75U A138U	≤ -4.2
A3G A12C A37C G48A A49C U78G G86A C87G C99U A142C U146G	≤ -4.2
U4A A24U C57A C93U G94U G141U	-2.67
A3G C18U A49C C57U C85G G143U	≤ -4.2
A3G A24U C69G C93G A119G C132G U139A	≤ -4.2
A3U U15C G81U A97U G128U	-3.58

Variant	polymerase ribozyme fitness (log ratio)
A3C G34C G48C A106U A138G A150G	≤ -4.2
A3C A47C G59C G86A	-3.89
A3U G59A C99U U144C A150G	≤ -4.2
A3U C18U G50A G68A C76A G92C C93U	≤ -4.2
A3U A12G A28U C87U	≤ -4.2
A3G A97C A107G	≤ -4.2
A3C A12U G58C C118U	-1.52
U4A A22C G48U C75G G84A	≤ -4.2
A3U U45A C96A	-3.51
A3G A24U U55A C85A	-2.17
A3C U6G A22C A29C C85G C93U C108G G143A	≤ -4.2
A3C A22U A37G C54G C57U C85U G88C G117C C129U	≤ -4.2
A3U C38U C96U G126U G143A	≤ -4.2
A3C C57U C93A	-1.56
A3C G68U C93A	≤ -4.2
A3C U6G G25U G83A	-3.47
A3C C51G U55G C75U C118A	≤ -4.2
A3G U6A U31G G88U	≤ -4.2
A3C A17C A19U G25C C93U A115G A120U	≤ -4.2
A3G G94A	-1.67
A3G A17U A47U U55G	-0.403
A3U G58A C96G	-1.09
A3U C5G A21U C85U A122G G140U U144G	≤ -4.2

Variants of: B2
Assay: as above
Outline: as §1

Variant	polymerase ribozyme fitness (log ratio)
U129A	-1.11
U129G	-1.1
U129C	-0.185
U130G U131A	-0.66
U131C U132A	-0.543
U129G U130A	-2.04
G128C U130C	-1.33
U129A G135C	-0.497
U133C	0.332
U133G	-0.279
U133A	-0.252
G127U U132C	-0.0869
U133G G135C	0.463
